The text below walks through data of article PMC8225110, “The Divergent Key Residues of Two Agrobacterium fabrum (tumefaciens) CheY Paralogs Play a Key Role in Distinguishing Their Functions” (Microorganisms, 2021).

In this assay the target is T1, GST-FliM fusion protein (Agrobacterium fabrum C58, UniProt Q44457 1-321).
T1 construct: Flagellar motor switch protein FliM (atu0561) of Agrobacterium fabrum C58; Cloned in pGEX-4T-1; not shown: GST, N-terminal, kept
T1 sequence (looked up): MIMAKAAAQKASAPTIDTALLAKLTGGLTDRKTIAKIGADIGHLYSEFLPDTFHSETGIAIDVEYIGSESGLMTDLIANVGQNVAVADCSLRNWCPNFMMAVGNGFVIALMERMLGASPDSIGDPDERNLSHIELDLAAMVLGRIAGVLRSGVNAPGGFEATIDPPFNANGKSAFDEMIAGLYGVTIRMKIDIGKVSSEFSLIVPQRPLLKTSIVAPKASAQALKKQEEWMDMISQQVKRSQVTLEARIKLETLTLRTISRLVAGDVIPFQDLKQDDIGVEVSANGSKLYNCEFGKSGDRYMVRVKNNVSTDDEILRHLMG
In words: pull-down; GST-FliM on glutathione-Sepharose 4B beads, crude extract of CheY-6×his in PBS with MgCl2 and acetyl phosphate (phosphorylating conditions), 4 °C, 1 h; Western blot with anti-6×his antibody. As to conditions: one partner purified. For orientation: A western blot detects proteins with antibodies after separation by electrophoresis.

B1: CheY2-6×his fusion protein, phosphorylated with acetyl phosphate (natural protein, Agrobacterium fabrum C58, UniProt Q7D1A5 1-129, looked up)
chain: MSLAEKIKVLIVDDQVTSRLLLSDALTQLGFKQITSAGDGEQGLKIMEQQPHHLVISDFNMPKMDGLGFLHAVRANPTTKKAAFIILTAQGDRALVQKAAQLGANNVLAKPFTIDKMRAAIEAVFGSLK
modifications: phosphorylated by acetyl phosphate (residue not given)
notes: Chemotaxis response regulator CheY2 (atu0520) of Agrobacterium fabrum C58; Same construct as m11; the extent of phosphorylation was not measured; also called CheY2-P; source: E. coli BL21 (DE3), crude extract, with acetyl phosphate (phosphorylating conditions); not shown: His6, C-terminal, kept
Take B1: the “fold band intensity pulled down, against CheY1-6×his” value was ~5 fold.
